From publication PMC11025796

What was measured:
[1] = molecular target: HrGH45, endogenous glycosylated GH45 endo-1,4-β-D-glucanase from the red abalone (Haliotis rufescens) (Haliotis rufescens); test: zymography (SDS-PAGE without reducing agent or heating, in-gel cellulase activity); 12% SDS-PAGE gel with 0.1% (w/v) CMC in the resolving phase, sample not reduced and not heated; Triton X-100 wash, overnight at 37°C in buffer A, Congo red stain; a second gel stained with Coomassie
[2] = molecular target: HrGH45, endogenous glycosylated GH45 endo-1,4-β-D-glucanase from the red abalone (Haliotis rufescens) (Haliotis rufescens); test: SEC; calibrated gel filtration on an Agilent Bio SEC-3 HPLC column; 0.1 mg/mL HrGH45 in buffer A (50 mM sodium acetate pH 6.0, 200 mM NaCl, 1 mM EDTA, 0.05% NaN3), 1 mL/min; mass in solution compared with the MALDI-TOF mass of the monomer

## HrGH45, endogenous glycosylated GH45 endo-1,4-β-D-glucanase from the red abalone (Haliotis rufescens) (enzyme)
[1]
  stoichiometry N: 3
[2]
  stoichiometry N: 3
